B1: SAT2 (parent)
chain: GYGIYYFIYSTWKGRTIYLEDIYV
B2: RHOBTB2 (parent)
chain: LYTGELDENERDLMHIAHIAELLE

Variants of: B1
Assay: protein stability index of a GFP-peptide fusion (GPS, HEK-293T) (PSI 1-6); higher = more stable
Settings: c terminus: a fixed tail appended
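Further: lentivirally expressed fusions sorted by FACS into six bins by GFP to DsRed ratio, PSI derived from sequencing read proportions per bin multiplied by bin number.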

Protein stability index: each site, then its substitutions
T11: N 4.08; D 3.32; R 2.28
R15: E 3.72; G 2.53
Y23: A 2.89
F7: E 2.37; R 2.72; Q 5.82; W 2.65
D21: A 2.28
G1: C 1.66
Y9: N 2.2; C 2.94
W12: E 2.55
V24: G 2.6; A 2.62
G3: H 2.85; E 2.58
E20: A 3.56
G14: H 4.09; Q 3.24; W 2.43
Y6: Q 3.44
I17: P 2.91
I4: G 1.88
I8: D 3.24
Y2: I 3.75; Q 4.95
L19: N 1.73

Variants of: B2
Assay: as above
Settings: c terminus: a fixed tail appended

Protein stability index: each site, then its substitutions
I16: Q 3.87; M 2.51; C 3.77; R 4.43; Y 2.93; E 4.85; L 2.09; G 4.06; F 2.71; S 3.9; A 4.07; K 4.05; P 4.15; N 3.54; T 3.62; V 2.76; W 3.16; H 3.76; D 4.12
E24: Y 2.04; V 1.97; M 2.17; K 2.12; G 2.85; D 2.94; P 3.33; W 1.91; N 2.42; L 2.18; Q 2.38; C 2.04; F 1.79; H 2.21; S 2.22; A 3.44; I 2; R 2.11; T 2.3
I19: N 4.47; T 3.79; S 3.26; G 4.45; M 2.52; D 4.85; Y 3.56; E 4.85; A 3.38; F 2.67; L 2.31; W 2.28; H 3.62; C 3.3; V 3.1; K 4.3; Q 3.37; R 4.17; P 4.81
M14: T 3.04; R 2.36; Y 2.01; P 3.48; H 3.1; V 2.16; C 2.45; K 2.89; I 2.84; A 2.39; L 2.58; G 3.36; W 1.82; D 3.41; Q 2.39; N 3.52; S 3.8; F 2.54
E21: L 1.92; C 2.37; N 2.48; M 2.12; G 1.92; S 1.7; P 3.3; D 2.77; I 1.77; K 2.07; Q 2.32; Y 1.76; R 1.85; V 1.04; F 1.74; W 2.1; H 1.8; A 1.72; T 1.75
A17: K 2.72; T 1.82; V 1.66; M 1.41; Q 2.95; D 3.28; Y 1.93; F 2.38; H 3.58; C 1.77; I 2.1; G 2.77; S 3.02; R 2.7; E 2.17; L 1.45; P 3.85; W 1.87; N 2.92
N9: G 2.82; V 1.89; Y 1.64; A 2.57; S 2.19; C 1.85; T 2.71; R 2.79; E 3.15; I 3.37; P 2.03; H 2.54; F 1.34; L 1.51; M 1.86; K 2.68; Q 2.25; D 2.59
E8: Y 2.23; V 2.9; W 2.88
H18: Y 1.59; I 2.65; G 3.76; S 3.03; R 2.38; C 2.41; Q 1.82; F 1.72; L 1.23; W 2.11; T 1.95; M 2.71; D 2.87; E 3.32; P 2.88; A 1.65; N 3.47; K 3.54; V 2.05
R11: E 2.44; W 2.04; Y 2.42; V 2.04; G 3.32; N 2.1; F 1.83; C 2.66; P 2.67; M 1.96; I 2.57; D 2.9; K 2.77; L 1.77; Q 1.96; H 2.39; T 2.14; S 2.5; A 2.27
E10: H 2.05; G 2.02; R 2.58; L 2.24; F 2.53; W 2.41; D 2.87; V 1.89; Q 2.61; P 1.88; I 2.26; C 2.6; S 1.98; Y 1.95; A 2.58; K 1.94; N 2.83; M 1.68; T 2.66
D12: E 2.47; N 3.12; W 2.49; S 2.56; V 2.96; C 2.53; F 2.78; T 2.43; Y 1.66; G 2.74; M 2.95; K 3.02; P 2.43; Q 2.4; H 3.13; A 2.01; L 3.07; I 3.03
L23: I 2.66; R 4.05; T 3.99; S 4.25; Y 3.31; G 4.05; F 2.41; N 4.01; C 3.58; H 3.97; V 2.62; A 4.33; M 3.3; P 4.28; D 4.28; K 3.93; W 2.55; Q 4.41; E 5.05
A20: V 1.93; C 1.31; F 1.97; D 3.34; Y 2.53; N 3.74; K 2.99; T 2.76; E 3.85; W 2.37; Q 3.72; H 3.54; L 1.61; R 3.22; I 2.14; G 3.3; P 3.79; S 3.08; M 2.01
L13: A 3.08; D 3.12; G 3.74; I 2.38; F 3.13; V 3.22; M 2.92; R 3.06; K 3.1; H 3.58; Q 3.29; W 2.65; N 3.28; E 3.44; Y 2.59; S 3.12; C 3.45; T 3.34; P 4.82
H15: G 2.78; M 1.86; A 1.74; Q 2.4; T 1.53; S 2.54; W 2.47; K 2.21; I 1.93; V 1.62; E 2.76; Y 1.67; P 3.23; R 2.42; L 1.5; F 2.46; N 2.63; D 3.36; C 2.13
L22: E 4.08; C 2.79; S 3.66; R 3.62; N 3.5; I 2.56; M 2.18; A 2.96; G 3.6; F 3.41; K 3.67; Q 3.74; V 2.72; W 2.52; Y 3.03; P 4.75; H 3.76; T 3; D 4.26
